Like-named read-outs stand apart in the source and are kept apart here.
Columns and labels:
Type in all cases: binding
SARS-CoV-2 gRNA = conditions: for target (unweighted spectral count of the protein in the RNP capture): LC-MS/MS, Probe I sample (first 199 lines of Table 2)
[1] = tested on: SARS-CoV-2 gRNA and sgRNAs; conditions: for target (unweighted spectral count in RNP capture): Probe II capture, LC-MS/MS LFQ; for background (unweighted spectral count in control): no-probe control pull-down, used as background for Probe II
HCoV-OC43 gRNA and sgRNA = conditions: for target (unweighted spectral count, OC43 Probe II capture) / target (unweighted spectral count): tested against no-probe control; for target (unweighted spectral count, OC43 Probe II capture): FDR<10%; for target (unweighted spectral count): OC43 Probe II, infected cells; for target (unweighted spectral count, OC43 Probe II): OC43 Probe II capture on infected cells; for background (unweighted spectral count, no-probe control): no-probe control on infected cells

B1: KHSRP (protein, UniProt Q92945 2-711, looked up)
Far upstream element-binding …: SDYSTGGPPPGPPPPAGGGGGAGGAGGGPPPGPPGAGDRGGGGPGGGGPGGGSAGGPSQPPGGGGPGIRKDAFADAVQRARQIAAKIGGDAATTVNNSTPDFGFGGQKRQLEDGDQPESKKLASQGDSISSQLGPIHPPPRTSMTEEYRVPDGMVGLIIGRGGEQINKIQQDSGCKVQISPDSGGLPERSVSLTGAPESVQKAKMMLDDIVSRGRGGPPGQFHDNANGGQNGTVQEIMIPAGKAGLVIGKGGETIKQLQERAGVKMILIQDGSQNTNVDKPLRIIGDPYKVQQACEMVMDILRERDQGGFGDRNEYGSRIGGGIDVPVPRHSVGVVIGRSGEMIKKIQNDAGVRIQFKQDDGTGPEKIAHIMGPPDRCEHAARIINDLLQSLRSGPPGPPGGPGMPPGGRGRGRGQGNWGPPGGEMTFSIPTHKCGLVIGRGGENVKAINQQTGAFVEISRQLPPNGDPNFKLFIIRGSPQQIDHAKQLIEEKIEGPLCPVGPGPGGPGPAGPMGPFNPGPFNQGPPGAPPHAGGPPPHQYPPQGWGNTYPQWQPPAPHDPSKAAAAAADPNAAWAAYYSHYYQQPPGPVPGPAPAPAAPPAQGEPPQPPPTGQSDYTKAWEEYYKKIGQQPQQPGAPPQQDYTKAWEEYYKKQAQVATGGGPGAPPGSQPDYSAAWAEYYRQQAAYYGQTPGPGGPQPPPTQQGQQQAQ
target (unweighted spectral count of the protein in the RNP capture) (SARS-CoV-2 gRNA; […]): 128
target (unweighted spectral count in RNP capture) [1]: 82
background (unweighted spectral count in control) [1]: 1
target (unweighted spectral count, OC43 Probe II capture) (HCoV-OC43 gRNA and sgRNA; 36 hpi, type n_36_v): 76
target (unweighted spectral count) (HCoV-OC43 gRNA and sgRNA; 12 hpi (type n_12_v)): 23
target (unweighted spectral count) (HCoV-OC43 gRNA and sgRNA; 24 hpi (type n_24_v)): 47
target (unweighted spectral count, OC43 Probe II) (HCoV-OC43 gRNA and sgRNA; type n_48_v, 48 hpi): 86
background (unweighted spectral count, no-probe control) (HCoV-OC43 gRNA and sgRNA; type n_48_v, 48 hpi): 5

B2: MBNL1 (protein, UniProt Q9NR56 1-388, looked up)
Muscleblind-like protein 1: MAVSVTPIRDTKWLTLEVCREFQRGTCSRPDTECKFAHPSKSCQVENGRVIACFDSLKGRCSRENCKYLHPPPHLKTQLEINGRNNLIQQKNMAMLAQQMQLANAMMPGAPLQPVPMFSVAPSLATNASAAAFNPYLGPVSPSLVPAEILPTAPMLVTGNPGVPVPAAAAAAAQKLMRTDRLEVCREYQRGNCNRGENDCRFAHPADSTMIDTNDNTVTVCMDYIKGRCSREKCKYFHPPAHLQAKIKAAQYQVNQAAAAQAAATAAAMTQSAVKSLKRPLEATFDLGIPQAVLPPLPKRPALEKTNGATAVFNTGIFQYQQALANMQLQQHTAFLPPVPMVHGATPATVSAATTSATSVPFAATATANQIPIISAEHLTSHKYVTQM
target (unweighted spectral count of the protein in the RNP capture) (SARS-CoV-2 gRNA; […]): 19
target (unweighted spectral count in RNP capture) [1]: 32
background (unweighted spectral count in control) [1]: 1
target (unweighted spectral count) (HCoV-OC43 gRNA and sgRNA; 12 hpi (type n_12_v)): 5

B3: PABPN1 (protein, UniProt Q86U42 2-306, looked up)
Polyadenylate-binding protein …: AAAAAAAAAAGAAGGRGSGPGRRRHLVPGAGGEAGEGAPGGAGDYGNGLESEELEPEELLLEPEPEPEPEEEPPRPRAPPGAPGPGPGSGAPGSQEEEEEPGLVEGDPGDGAIEDPELEAIKARVREMEEEAEKLKELQNEVEKQMNMSPPPGNAGPVIMSIEEKMEADARSIYVGNVDYGATAEELEAHFHGCGSVNRVTILCDKFSGHPKGFAYIEFSDKESVRTSLALDESLFRGRQIKVIPKRTNRPGISTTDRGFPRARYRARTTNYNSSRSRFYSGFNSRPRGRVYRGRARATSWYSPY
target (unweighted spectral count of the protein in the RNP capture) (SARS-CoV-2 gRNA; […]): 12
target (unweighted spectral count in RNP capture) [1]: 11
background (unweighted spectral count in control) [1]: 1
target (unweighted spectral count, OC43 Probe II capture) (HCoV-OC43 gRNA and sgRNA; 24 hpi, type n_24_v): 5
target (unweighted spectral count, OC43 Probe II) (HCoV-OC43 gRNA and sgRNA; type n_48_v, 48 hpi): 8
background (unweighted spectral count, no-probe control) (HCoV-OC43 gRNA and sgRNA; type n_48_v, 48 hpi): 2

B4: MAP4 (protein, UniProt P27816 2-1152, looked up)
Microtubule-associated …: ADLSLADALTEPSPDIEGEIKRDFIATLEAEAFDDVVGETVGKTDYIPLLDVDEKTGNSESKKKPCSETSQIEDTPSSKPTLLANGGHGVEGSDTTGSPTEFLEEKMAYQEYPNSQNWPEDTNFCFQPEQVVDPIQTDPFKMYHDDDLADLVFPSSATADTSIFAGQNDPLKDSYGMSPCNTAVVPQGWSVEALNSPHSESFVSPEAVAEPPQPTAVPLELAKEIEMASEERPPAQALEIMMGLKTTDMAPSKETEMALAKDMALATKTEVALAKDMESPTKLDVTLAKDMQPSMESDMALVKDMELPTEKEVALVKDVRWPTETDVSSAKNVVLPTETEVAPAKDVTLLKETERASPIKMDLAPSKDMGPPKENKKETERASPIKMDLAPSKDMGPPKENKIVPAKDLVLLSEIEVAQANDIISSTEISSAEKVALSSETEVALARDMTLPPETNVILTKDKALPLEAEVAPVKDMAQLPETEIAPAKDVAPSTVKEVGLLKDMSPLSETEMALGKDVTPPPETEVVLIKNVCLPPEMEVALTEDQVPALKTEAPLAKDGVLTLANNVTPAKDVPPLSETEATPVPIKDMEIAQTQKGISEDSHLESLQDVGQSAAPTFMISPETVTGTGKKCSLPAEEDSVLEKLGERKPCNSQPSELSSETSGIARPEEGRPVVSGTGNDITTPPNKELPPSPEKKTKPLATTQPAKTSTSKAKTQPTSLPKQPAPTTIGGLNKKPMSLASGLVPAAPPKRPAVASARPSILPSKDVKPKPIADAKAPEKRASPSKPASAPASRSGSKSTQTVAKTTTAAAVASTGPSSRSPSTLLPKKPTAIKTEGKPAEVKKMTAKSVPADLSRPKSTSTSSMKKTTTLSGTAPAAGVVPSRVKATPMPSRPSTTPFIDKKPTSAKPSSTTPRLSRLATNTSAPDLKNVRSKVGSTENIKHQPGGGRAKVEKKTEAAATTRKPESNAVTKTAGPIASAQKQPAGKVQIVSKKVSYSHIQSKCGSKDNIKHVPGGGNVQIQNKKVDISKVSSKCGSKANIKHKPGGGDVKIESQKLNFKEKAQAKVGSLDNVGHLPAGGAVKTEGGGSEAPLCPGPPAGEEPAISEAAPEAGAPTSASGLNGHPTLSGGGDQREAQTLDSQIQETSI
target (unweighted spectral count of the protein in the RNP capture) (SARS-CoV-2 gRNA; […]): 14
background (unweighted spectral count in control) [1]: 1
target (unweighted spectral count, OC43 Probe II capture) (HCoV-OC43 gRNA and sgRNA; 24 hpi, type n_24_v): 8
target (unweighted spectral count) (HCoV-OC43 gRNA and sgRNA; 12 hpi (type n_12_v)): 5
target (unweighted spectral count, OC43 Probe II) (HCoV-OC43 gRNA and sgRNA; type n_36_v, 36 hpi): 11
background (unweighted spectral count, no-probe control) (HCoV-OC43 gRNA and sgRNA; type n_36_v, 36 hpi): 4

B5: ATXN2L: host protein, UniProt Q8WWM7 (protein, UniProt Q8WWM7 1-1075, looked up)
Ataxin-2-like protein: MLKPQPLQQPSQPQQPPPTQQAVARRPPGGTSPPNGGLPGPLATSAAPPGPPAAASPCLGPVAAAGSGLRRGAEGILAPQPPPPQQHQERPGAAAIGSARGQSTGKGPPQSPVFEGVYNNSRMLHFLTAVVGSTCDVKVKNGTTYEGIFKTLSSKFELAVDAVHRKASEPAGGPRREDIVDTMVFKPSDVMLVHFRNVDFNYATKDKFTDSAIAMNSKVNGEHKEKVLQRWEGGDSNSDDYDLESDMSNGWDPNEMFKFNEENYGVKTTYDSSLSSYTVPLEKDNSEEFRQRELRAAQLAREIESSPQYRLRIAMENDDGRTEEEKHSAVQRQGSGRESPSLASREGKYIPLPQRVREGPRGGVRCSSSRGGRPGLSSLPPRGPHHLDNSSPGPGSEARGINGGPSRMSPKAQRPLRGAKTLSSPSNRPSGETSVPPPPAVGRMYPPRSPKSAAPAPISASCPEPPIGSAVPTSSASIPVTSSVSDPGVGSISPASPKISLAPTDVKELSTKEPGRTLEPQELARIAGKVPGLQNEQKRFQLEELRKFGAQFKLQPSSSPENSLDPFPPRILKEEPKGKEKEVDGLLTSEPMGSPVSSKTESVSDKEDKPPLAPSGGTEGPEQPPPPCPSQTGSPPVGLIKGEDKDEGPVAEQVKKSTLNPNAKEFNPTKPLLSVNKSTSTPTSPGPRTHSTPSIPVLTAGQSGLYSPQYISYIPQIHMGPAVQAPQMYPYPVSNSVPGQQGKYRGAKGSLPPQRSDQHQPASAPPMMQAAAAAGPPLVAATPYSSYIPYNPQQFPGQPAMMQPMAHYPSQPVFAPMLQSNPRMLTSGSHPQAIVSSSTPQYPSAEQPTPQALYATVHQSYPHHATQLHAHQPQPATTPTGSQPQSQHAAPSPVQHQAGQAPHLGSGQPQQNLYHPGALTGTPPSLPPGPSAQSPQSSFPQPAAVYAIHHQQLPHGFTNMAHVTQAHVQTGITAAPPPHPGAPHPPQVMLLHPPQSHGGPPQGAVPQSGVPALSASTPSPYPYIGHPQGEQPGQAPGFPGGADDRIREFSLAGGIWHGRAEGLQVGQDARVLGGE
target (unweighted spectral count of the protein in the RNP capture) (SARS-CoV-2 gRNA; […]): 9
target (unweighted spectral count in RNP capture) [1]: 28
background (unweighted spectral count in control) [1]: 1
target (unweighted spectral count, OC43 Probe II capture) (HCoV-OC43 gRNA and sgRNA; 36 hpi, type n_36_v): 10
target (unweighted spectral count) (HCoV-OC43 gRNA and sgRNA; 12 hpi (type n_12_v)): 4
target (unweighted spectral count) (HCoV-OC43 gRNA and sgRNA; 24 hpi (type n_24_v)): 6
target (unweighted spectral count, OC43 Probe II) (HCoV-OC43 gRNA and sgRNA; type n_48_v, 48 hpi): 12
background (unweighted spectral count, no-probe control) (HCoV-OC43 gRNA and sgRNA; type n_48_v, 48 hpi): 1
target (spectral count) (HCoV-OC43 gRNA and sgRNA; type s_36_m, HCoV-OC43-infected HCT-8 cells, 36 hpi, Probe II): 10
background (spectral count) (HCoV-OC43 gRNA and sgRNA; type s_36_m, uninfected-probe control, 36 hpi, Probe II): 1

B6: FUS (protein, UniProt P35637 1-526, looked up)
RNA-binding protein FUS: MASNDYTQQATQSYGAYPTQPGQGYSQQSSQPYGQQSYSGYSQSTDTSGYGQSSYSSYGQSQNTGYGTQSTPQGYGSTGGYGSSQSSQSSYGQQSSYPGYGQQPAPSSTSGSYGSSSQSSSYGQPQSGSYSQQPSYGGQQQSYGQQQSYNPPQGYGQQNQYNSSSGGGGGGGGGGNYGQDQSSMSSGGGSGGGYGNQDQSGGGGSGGYGQQDRGGRGRGGSGGGGGGGGGGYNRSSGGYEPRGRGGGRGGRGGMGGSDRGGFNKFGGPRDQGSRHDSEQDNSDNNTIFVQGLGENVTIESVADYFKQIGIIKTNKKTGQPMINLYTDRETGKLKGEATVSFDDPPSAKAAIDWFDGKEFSGNPIKVSFATRRADFNRGGGNGRGGRGRGGPMGRGGYGGGGSGGGGRGGFPSGGGGGGGQQRAGDWKCPNPTCENMNFSWRNECNQCKAPKPDGPGGGPGGSHMGGNYGDDRRGGRGGYDRGGYRGRGGDRGGFRGGRGGGDRGGFGPGKMDSRGEHRQDRRERPY
target (unweighted spectral count of the protein in the RNP capture) (SARS-CoV-2 gRNA; […]): 5
target (unweighted spectral count in RNP capture) [1]: 7
background (unweighted spectral count in control) [1]: 1
target (unweighted spectral count, OC43 Probe II capture) (HCoV-OC43 gRNA and sgRNA; 36 hpi, type n_36_v): 7
target (unweighted spectral count) (HCoV-OC43 gRNA and sgRNA; 12 hpi (type n_12_v)): 6
target (unweighted spectral count) (HCoV-OC43 gRNA and sgRNA; 24 hpi (type n_24_v)): 9
target (unweighted spectral count, OC43 Probe II) (HCoV-OC43 gRNA and sgRNA; type n_48_v, 48 hpi): 11
background (unweighted spectral count, no-probe control) (HCoV-OC43 gRNA and sgRNA; type n_48_v, 48 hpi): 1

B7: EDF1 (protein, UniProt O60869 2-148, looked up)
Endothelial …: AESDWDTVTVLRKKGPTAAQAKSKQAILAAQRRGEDVETSKKWAAGQNKQHSITKNTAKLDRETEELHHDRVTLEVGKVIQQGRQSKGLTQKDLATKINEKPQVIADYESGRAIPNNQVLGKIERAIGLKLRGKDIGKPIEKGPRAK
target (unweighted spectral count in RNP capture) (SARS-CoV-2 gRNA; Probe I capture, […], LC-MS/MS LFQ): 5
background (unweighted spectral count in control) (SARS-CoV-2 gRNA; no-probe control pull-down, used as background for Probe I): 1
target (unweighted spectral count in RNP capture) [1]: 8
background (unweighted spectral count in control) [1]: 1
target (unweighted spectral count, OC43 Probe II capture) (HCoV-OC43 gRNA and sgRNA; 24 hpi, type n_24_v): 4
